# In publication PMC9723649:
# How the values were obtained:
# purified protein [1] = substrate: N[C@@H](CO)C(=O)O; test: purified protein
# purified protein [2] = substrate: Nc1ncnc2c1ncn2[C@@H]1O[C@H](COP(=O)(O)OP(=O)(O)OP(=O)(O)O)[C@@H](O)[C@H]1O; test: purified protein
protein,measurement,setting,value
"SARS2 (human mitochondrial seryl-tRNA synthetase, mature form) (Homo sapiens) (protein) TTEKRNRNLLYEYAREGYSALPQLDIERFCACPEEAAHALELRKGELRSADLPAIISTWQELRQLQEQIRSLEEEKAAVTEAVRALLANQDSGEVQQDPKYQGLRARGREIRKELVHLYPREAQLEEQFYLQALKLPNQTHPDVPVGDESQARVLHMVGDKPVFSFQPRGHLEIGEKLDIIRQKRLSHVSGHRSYYLRGAGALLQHGLVNFTFNKLLRRGFTPMTVPDLLRGAVFEGCGMTPNANPSQIYNIDPARFKDLNLAGTAEVGLAGYFMDHTVAFRDLPVRMVCSSTCYRAETNTGQEPRGLYRVHHFTKVEMFGVTGPGLEQSSQLLEEFLSLQMEILTELGLHFRVLDMPTQELGLPAYRKFDIEAWMPGRGRFGEVTSASNCTDFQSRRLHIMFQTEAGELQFAHTVNATACAVPRLLIALLESNQQKDGSVLVPPALQSYLGTDRITAPTHVPLQYIGPNQPRKPGLPGQPAVS",Km,purified protein [1],2400 ± 40 µM
same,Km,purified protein [2],112.83 ± 10.54 µM
